Source: patent US20250145711A1 (Janssen / Centocor, published 2025)

Experiments:
[1] = target: T1, TRCW5 antigen (CD3δε-Fc-Avi) (biotinylated (site not stated)); assay: ELISA
T1 construct: also called recombinant CD3

[2] = target: T1, TRCW5 antigen (CD3δε-Fc-Avi); assay: binding after heat
[3] = target: T1, TRCW5 antigen (CD3δε-Fc-Avi); assay: ELISA after heat
[4] = target: T2, CD3 on primary human pan T cells (human, UniProt P07766 23-207); assay: flow cytometry, pan T-cells
T2 construct: on cells it stands in the TCR/CD3 complex; also called Pan T-cells (CD3-positive); endogenous CD3
Method: ELISA assays for binding to recombinant CD3 (TRCW5, SEQ ID NO: 39) were performed as above. Cell binding was performed using primary human T cell and Jurkat cells by flow cytometry. Briefly, E. coli expressed anti CD3 ScFv supernatants, either at room temperature, or 55° C., 60° C. or 65° C. heat treated samples.
Pan T-cells (CD3-positive) and Jurkat-CD3-negative cells were prepared by staining Jurkat-CD3-negative cells with CFSE while keeping pan T-cells unstained. Jurkat-CD3-negative cell suspensions were resuspended at 20 million cells per each 50 mL conical tube. Cells were harvested by centrifugation at 400×g for 5 minutes and resuspended in DPBS followed by washing 2× in DPBS. Cells were stained with 1:25,000 dilution for a final dye concentration of 0.02 uM CFSE (2 uL of staining solution to 50 mL of cell suspension). Cells were incubated for 10 minutes at room temperature and centrifuged for 5 minutes at 400×g. After removal of supernatant, 3 mL of HI-FBS were added to the cell pellet, mixed and centrifuged for 5 min at 400×g. Supernatant was removed and cells were resuspended in BD stain buffer at 2×10\hat{ }6 cells/mL and incubated on ice or 4 C protected from light. Human pan T cells were thawed at 37 C and transferred gently into a conical tube containing 15 mL of warm or RT culture media (RPMI+10% FBS). […] Cells were harvested by centrifugation at 400×g for 5 min and resuspended in culture media (RPMI+10% HI-FBS). Pan T-cells (without staining) were prepared at 2×10\hat{ }6 cells/mL in flow staining buffer. Equal volumes of CFSE stained Jurkat-CD3-negative cells and unstained T-cells (CD3-positive) cells were mixed and plated 50 uL/well into assay plates. 50 uL/well neat bacterial supernatant samples and control sample (CD3W36 ScFv) were added to each well and plates were incubated 1 hr at 4 C or. Cells were harvested by centrifugation at 400×g for 4 min and 150 uL staining buffer were added to all wells, followed by centrifugation at 400×g for 4 min to pellet cells. To each well, 150 uL staining buffer were added followed by centrifugation at 400×g for 4 minutes to pellet cells.

T1 sequence (chain, as listed by the source mutant limits assumed): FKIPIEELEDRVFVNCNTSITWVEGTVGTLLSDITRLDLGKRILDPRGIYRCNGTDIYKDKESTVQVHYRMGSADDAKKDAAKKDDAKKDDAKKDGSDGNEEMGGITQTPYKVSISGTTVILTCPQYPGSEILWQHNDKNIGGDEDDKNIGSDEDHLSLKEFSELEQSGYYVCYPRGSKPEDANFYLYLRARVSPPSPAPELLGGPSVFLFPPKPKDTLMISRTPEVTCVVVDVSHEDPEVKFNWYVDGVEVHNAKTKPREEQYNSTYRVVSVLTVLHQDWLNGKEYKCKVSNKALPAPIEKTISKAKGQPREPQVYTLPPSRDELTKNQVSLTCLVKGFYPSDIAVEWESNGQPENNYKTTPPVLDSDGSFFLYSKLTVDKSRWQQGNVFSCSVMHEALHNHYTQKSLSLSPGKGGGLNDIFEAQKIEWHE
T2 sequence (P07766 23-207 limits assumed): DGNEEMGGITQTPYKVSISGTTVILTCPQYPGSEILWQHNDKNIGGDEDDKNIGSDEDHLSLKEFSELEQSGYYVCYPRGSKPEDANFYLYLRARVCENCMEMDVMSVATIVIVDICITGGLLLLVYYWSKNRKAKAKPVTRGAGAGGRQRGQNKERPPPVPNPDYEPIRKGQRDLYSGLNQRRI

B1: CD3B2030 N106A (scFv)
scFv: QVQLVQSGAEVKKPGSSVKVSCKASGYTFTRSTMHWVKQAPGQGLEWIGYINPSSAYTNYNQKFQGRVTLTADKSTSTAYMELSSLRSEDTAVYYCASPQVHYDYAGFPYWGQGTLVTVSSGGSEGKSSGSGSESKSTGGSEIVLTQSPATLSASPGERVTLSCSASSSVSYMNWYQQKPGQAPRRWIYDSSKLASGVPARFSGSGSGRDYTLTISSLEPEDFAVYYCQQWSRNPPTFGGGTKVEIK
- EC50 [1]: 12.8 nM
- % Retained 55° C. [2]: 111%
- % Retained 60° C. [2]: 103%
- % Retained 65° C. [2]: 55.6%

B2: CD3B2085 (scFv)
scFv: QVQLVQSGAEVKKPGSSVKVSCKASGYTFTRSTMHWVRQAPGQGLEWMGYINPSSAYTNYAQKFQGRVTLTADKSTSTAYMELSSLRSEDTAVYYCASPQVHYDYNGFPYWGQGTLVTVSSGGSEGKSSGSGSESKSTGGSEIVLTQSPATLSASPGERVTLSCSASSSVSYMNWYQQKPGTAPRRWIYDSSKLASGVPARFSGSGSGRDYTLTISSLEPEDFAVYYCQQWSRNPPTFGGGTKVEIK
- % Retained 55° C. [3]: 112%
- % Retained 60° C. [3]: 117%
- % Retained 65° C. [3]: 18%
- % Binding retained on T-cells, 55° C. [4]: 1.01 fraction
- % Binding retained on T-cells, 60° C. [4]: 0.411 fraction
- % Binding retained on T-cells, 65° C. [4]: 0.385 fraction
- % Binding retained on T-cells, RT [4]: 1 fraction

B3: CD3B2030 N106I (scFv)
scFv: QVQLVQSGAEVKKPGSSVKVSCKASGYTFTRSTMHWVKQAPGQGLEWIGYINPSSAYTNYNQKFQGRVTLTADKSTSTAYMELSSLRSEDTAVYYCASPQVHYDYIGFPYWGQGTLVTVSSGGSEGKSSGSGSESKSTGGSEIVLTQSPATLSASPGERVTLSCSASSSVSYMNWYQQKPGQAPRRWIYDSSKLASGVPARFSGSGSGRDYTLTISSLEPEDFAVYYCQQWSRNPPTFGGGTKVEIK
- EC50 [1]: ~13.3 nM

B4: CD3B2089 G107F (scFv)
scFv: QVQLVQSGAEVKKPGSSVKVSCKASGYTFTRSTMHWVRQAPGQGLEWMGYINPSSAYTNYAQKFQGRVTLTADKSTSTAYMELSSLRSEDTAVYYCASPQVHYDYNFFPYWGQGTLVTVSSGGSEGKSSGSGSESKSTGGSEIVLTQSPATLSASPGERVTLSCSASSSVSYMNWYQQKPGQAPRRWIYDSSKLASGVPARFSGSGSGRDYTLTISSLEPEDFAVYYCQQWSRNPPTFGGGTKVEIK
- EC50 [1]: 14.4 nM

B5: CD3B2089 N106G (scFv)
scFv: QVQLVQSGAEVKKPGSSVKVSCKASGYTFTRSTMHWVRQAPGQGLEWMGYINPSSAYTNYAQKFQGRVTLTADKSTSTAYMELSSLRSEDTAVYYCASPQVHYDYGGFPYWGQGTLVTVSSGGSEGKSSGSGSESKSTGGSEIVLTQSPATLSASPGERVTLSCSASSSVSYMNWYQQKPGQAPRRWIYDSSKLASGVPARFSGSGSGRDYTLTISSLEPEDFAVYYCQQWSRNPPTFGGGTKVEIK
- EC50 [1]: ~429 nM

B6: CD3B2087 (scFv)
scFv: QVQLVQSGAEVKKPGSSVKVSCKASGYTFTRSTMHWVRQAPGQGLEWMGYINPSSAYTNYAQKFQGRVTLTADKSTSTAYMELSSLRSEDTAVYYCASPQVHYDYNGFPYWGQGTLVTVSSGGSEGKSSGSGSESKSTGGSEIVLTQSPATLSASPGERVTLSCSASSSVSYMNWYQQKPGTAPRRLIYDSSKLASGVPARFSGSGSGRDYTLTISSLEPEDFAVYYCQQWSRNPPTFGGGTKVEIK
- % Retained 55° C. [3]: 104%
- % Retained 60° C. [3]: 94%
- % Retained 65° C. [3]: 5%
- % Binding retained on T-cells, 55° C. [4]: 1.02 fraction
- % Binding retained on T-cells, 60° C. [4]: 0.964 fraction
- % Binding retained on T-cells, 65° C. [4]: 0.105 fraction
- % Binding retained on T-cells, RT [4]: 1 fraction

B7: CD3B2088 (scFv)
scFv: QVQLVQSGAEVKKPGSSVKVSCKASGYTFTRSTMHWVRQAPGQGLEWMGYINPSSAYTNYAQKFQGRVTLTADKSTSTAYMELSSLRSEDTAVYYCASPQVHYDYNGFPYWGQGTLVTVSSGGSEGKSSGSGSESKSTGGSEIVLTQSPATLSASPGERVTLSCSASSSVSYMNWYQQKPGQSPRRWIYDSSKLASGVPARFSGSGSGRDYTLTISSLEPEDFAVYYCQQWSRNPPTFGGGTKVEIK
- % Retained 55° C. [3]: 116%
- % Retained 60° C. [3]: 114%
- % Retained 65° C. [3]: 26%
- % Binding retained on T-cells, 55° C. [4]: 1.01 fraction
- % Binding retained on T-cells, 60° C. [4]: 0.461 fraction
- % Binding retained on T-cells, 65° C. [4]: 0.258 fraction
- % Binding retained on T-cells, RT [4]: 1 fraction

B8: CD3B2086 (scFv)
scFv: QVQLVQSGAEVKKPGSSVKVSCKASGYTFTRSTMHWVRQAPGQGLEWMGYINPSSAYTNYAQKFQGRVTLTADKSTSTAYMELSSLRSEDTAVYYCASPQVHYDYNGFPYWGQGTLVTVSSGGSEGKSSGSGSESKSTGGSEIVLTQSPATLSASPGERVTLSCSASSSVSYMNWYQQKPGTSPRRLIYDSSKLASGVPARFSGSGSGRDYTLTISSLEPEDFAVYYCQQWSRNPPTFGGGTKVEIK
- % Retained 55° C. [3]: 104%
- % Retained 60° C. [3]: 96%
- % Retained 65° C. [3]: 5%
- % Binding retained on T-cells, 55° C. [4]: 1.01 fraction
- % Binding retained on T-cells, 60° C. [4]: 1.12 fraction
- % Binding retained on T-cells, 65° C. [4]: 0.0404 fraction
- % Binding retained on T-cells, RT [4]: 1 fraction

B9: CD3B2089 G107V (scFv)
scFv: QVQLVQSGAEVKKPGSSVKVSCKASGYTFTRSTMHWVRQAPGQGLEWMGYINPSSAYTNYAQKFQGRVTLTADKSTSTAYMELSSLRSEDTAVYYCASPQVHYDYNVFPYWGQGTLVTVSSGGSEGKSSGSGSESKSTGGSEIVLTQSPATLSASPGERVTLSCSASSSVSYMNWYQQKPGQAPRRWIYDSSKLASGVPARFSGSGSGRDYTLTISSLEPEDFAVYYCQQWSRNPPTFGGGTKVEIK
- EC50 [1]: 17.4 nM

B10: CD3B2030 N106P (scFv)
scFv: QVQLVQSGAEVKKPGSSVKVSCKASGYTFTRSTMHWVKQAPGQGLEWIGYINPSSAYTNYNQKFQGRVTLTADKSTSTAYMELSSLRSEDTAVYYCASPQVHYDYPGFPYWGQGTLVTVSSGGSEGKSSGSGSESKSTGGSEIVLTQSPATLSASPGERVTLSCSASSSVSYMNWYQQKPGQAPRRWIYDSSKLASGVPARFSGSGSGRDYTLTISSLEPEDFAVYYCQQWSRNPPTFGGGTKVEIK
- EC50 [1]: ~24 nM

B11: CD3B2089 N106L (scFv)
scFv: QVQLVQSGAEVKKPGSSVKVSCKASGYTFTRSTMHWVRQAPGQGLEWMGYINPSSAYTNYAQKFQGRVTLTADKSTSTAYMELSSLRSEDTAVYYCASPQVHYDYLGFPYWGQGTLVTVSSGGSEGKSSGSGSESKSTGGSEIVLTQSPATLSASPGERVTLSCSASSSVSYMNWYQQKPGQAPRRWIYDSSKLASGVPARFSGSGSGRDYTLTISSLEPEDFAVYYCQQWSRNPPTFGGGTKVEIK
- EC50 [1]: 30.8 nM

B12: CD3B2089 N106P (scFv)
scFv: QVQLVQSGAEVKKPGSSVKVSCKASGYTFTRSTMHWVRQAPGQGLEWMGYINPSSAYTNYAQKFQGRVTLTADKSTSTAYMELSSLRSEDTAVYYCASPQVHYDYPGFPYWGQGTLVTVSSGGSEGKSSGSGSESKSTGGSEIVLTQSPATLSASPGERVTLSCSASSSVSYMNWYQQKPGQAPRRWIYDSSKLASGVPARFSGSGSGRDYTLTISSLEPEDFAVYYCQQWSRNPPTFGGGTKVEIK
- EC50 [1]: ~27.4 nM

B13: CD3B2089 G107Y (scFv)
scFv: QVQLVQSGAEVKKPGSSVKVSCKASGYTFTRSTMHWVRQAPGQGLEWMGYINPSSAYTNYAQKFQGRVTLTADKSTSTAYMELSSLRSEDTAVYYCASPQVHYDYNYFPYWGQGTLVTVSSGGSEGKSSGSGSESKSTGGSEIVLTQSPATLSASPGERVTLSCSASSSVSYMNWYQQKPGQAPRRWIYDSSKLASGVPARFSGSGSGRDYTLTISSLEPEDFAVYYCQQWSRNPPTFGGGTKVEIK
- EC50 [1]: 21.4 nM

B14: CD3B2082 (scFv)
scFv: QVQLVQSGAEVKKPGSSVKVSCKASGYTFTRSTMHWVRQAPGQGLEWMGYINPSSAYTNYAQKFQGRVTLTADKSTSTAYMELSSLRSEDTAVYYCASPQVHYDYNGFPYWGQGTLVTVSSGGSEGKSSGSGSESKSTGGSEIVLTQSPATLSASPGERVTLSCSASSSVSYMNWYQQKPGTSPRRWIYDSSKLASGVPARFSGSGSGRDYTLTISSLEPEDFAVYYCQQWSRNPPTFGGGTKVEIK
- % Retained 55° C. [3]: 114%
- % Retained 60° C. [3]: 116%
- % Retained 65° C. [3]: 9%
- % Binding retained on T-cells, 55° C. [4]: 1.11 fraction
- % Binding retained on T-cells, 60° C. [4]: 0.682 fraction
- % Binding retained on T-cells, 65° C. [4]: 0.276 fraction
- % Binding retained on T-cells, RT [4]: 1 fraction
